In patent publication US9688764B2, “Methods of treating breast cancer by administering anti-human prolactin receptor (PRLR) antibodies” (REGENERON PHARMACEUTICALS, INC., priority 2013, dated 2017):

Columns and labels:
[1] = biological target: T1, hPRLR.mFc (soluble dimeric human PRLR) (Homo sapiens, UniProt P16471); assay: Surface plasmon resonance (Biacore T200), mAb-capture format; format: binding; settings: antibody-capture format, analyte hPRLR.mFc
T1 construct: dimeric (hPRLR.mFc)
Method: (§1) Antibodies, expressed as human IgG1 Fc “[…]” designations), were captured onto an anti-human Fc sensor surface (mAb-capture format), and soluble monomeric (hPRLR.mmh; SEQ ID NO:401, or macaca fascicularis (mf) PRLR.mmh; SEQ ID NO:403) or dimeric (hPRLR.mFc; SEQ ID NO:402) PRLR protein was injected over the sensor surface. Measurements were conducted on a T200 Biacore instrument. Kinetic association (ka) and dissociation (kd) rate constants were determined by processing and fitting the data to a 1:1 binding model using Scrubber 2.0 curve fitting software.

[2] = biological target: T2, hPRLR.mmh (soluble monomeric human PRLR) (Homo sapiens, UniProt P16471); assay: as above; format: binding; settings: antibody-capture format, analyte hPRLR.mmh
T2 construct: soluble monomeric (hPRLR.mmh); mmh (myc-myc-hexahistidine)
Method: as §1

[3] = biological target: mfPRLR.mmh (monomeric macaca fascicularis PRLR); assay: as above; format: binding; settings: antibody-capture format, analyte mfPRLR.mmh
Method: as §1

[4] = system: HEK293/mfPRLR; assay: FACS cell surface binding; design: species or system macaca fascicularis
Method: The ability of anti-PRLR antibodies to selectively bind PRLR expressing cell lines was next determined. Human, monkey macaca fascicularis, and mouse PRLR constructs with an HA tag were stably introduced into HEK293 cells via Lipofectamine 2000-mediated transfection methodology. Transfectants (HEK293/hPRLR, HEK293/mfPRLR and HEK293/mPRLR) were selected for at least 2 weeks in complete growth media plus G418.
Cell surface expression of PRLR on 293/hPRLR cells was assessed via FACS analysis. Briefly, 1×10^5 cells were incubated with 10 μg/ml of Control antibody I, or an isotype control for 30 min on ice in antibody dilution buffer. Following two washes with antibody dilution buffer, cells were incubated with 10 μg/ml of PE conjugated anti-human secondary antibodies for 30 min on ice. Following two additional washes, samples were run on a Hypercyt® cytometer and analyzed in FORECYT™ (IntelliCyt, Albuquerque, N. Mex.). The mean fluorescence intensities (MFI) were expressed as fold change above isotype control levels (background). FACS binding confirmed that Control I selectively bound to 293/hPRLR expressing cells with MFIs that were 30 fold above background (isotype ctrl) levels and less than 2 fold binding on parental cells.
Next, the anti-PRLR antibodies of the present invention were tested via FACS for selective binding to the engineered overexpressing PRLR HEK293 cell lines, as well as to non-expressing HEK293 cells and a native PRLR expressing cell line (T47D).

[5] = system: HEK293/hPRLR/STAT5-Luc cells (human PRLR); assay: STAT5-Luc luciferase reporter assay, blocking of PRL-mediated receptor activation; format: cell-based; settings: for IC50: 5 nM constant PRL, 6 hr at 37° C.; for Percent Blocking at 100 nM Antibody: 5 nM PRL
Text: The ability of anti-PRLR antibodies to block prolactin (PRL)-mediated receptor activation was examined in a luciferase-based reporter assay. The endocrine hormone PRL binds to the extracellular domain of its cognate receptor PRLR, triggering rapid homodimerization and activating several downstream signaling cascades.
In this example, an engineered cell line was used to determine the ability of anti-PRLR antibodies to block ligand activation of the PRLR receptor. Briefly, HEK293/hPRLR/STAT5-Luc cell lines with stable incorporation of a human PRLR expression cassette and the STAT5-dependent luciferase reporter were generated via sequential rounds of Lipofectamine® 2000-mediated transfection (LifeTechnologies, Carlsbad, Calif.). Cells were selected for at least two weeks in the presence of 500 μg/mL G418 (hPRLR) and 100 μg/mL hygromycin B (STAT5-Luc). The STAT5-Luc assay utilized 2×10^5 HEK293/hPRLR/STAT5-Luc cells seeded in complete growth medium on PDL-coated 96 well plates grown overnight at 37° C., 5% CO2. To generate antibody inhibition curves, cells were incubated (6 hr at 37° C.) with serially diluted anti-human PRLR antibodies (100 nM to 24 pM) in the presence of 5 nM constant PRL before recording signal. PRL dose response curves were generated by the addition of serially diluted PRL (100 nM to 24 pM) to cells and recording signal after a 6 hr (37° C.) incubation in the absence of antibodies. The ability of the antibodies to activate PRLR in the absence of ligand was also assessed.
Luciferase activity was measured with ONE-GLO™ reagent (Promega, Madison, Wis.). Relative light units (RLUs) were measured on a Victor luminometer (Perkin Elmer, Shelton, Conn.). EC50/IC50 values were determined from a four-parameter logistic equation over an 8-point response curve using GraphPad Prism. Percent blocking and percent activation are reported for the highest antibody dose.

Sequence of mfPRLR.mmh (monomeric macaca fascicularis PRLR) (as listed by the source): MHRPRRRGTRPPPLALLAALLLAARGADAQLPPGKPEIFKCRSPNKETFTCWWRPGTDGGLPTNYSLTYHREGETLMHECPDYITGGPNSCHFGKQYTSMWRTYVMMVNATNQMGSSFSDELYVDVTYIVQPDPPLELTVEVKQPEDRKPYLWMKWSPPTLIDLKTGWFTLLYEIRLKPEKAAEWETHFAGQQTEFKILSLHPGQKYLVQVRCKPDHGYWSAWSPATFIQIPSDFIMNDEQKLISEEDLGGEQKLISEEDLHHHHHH
Sequence of HEK293/mfPRLR (as listed by the source): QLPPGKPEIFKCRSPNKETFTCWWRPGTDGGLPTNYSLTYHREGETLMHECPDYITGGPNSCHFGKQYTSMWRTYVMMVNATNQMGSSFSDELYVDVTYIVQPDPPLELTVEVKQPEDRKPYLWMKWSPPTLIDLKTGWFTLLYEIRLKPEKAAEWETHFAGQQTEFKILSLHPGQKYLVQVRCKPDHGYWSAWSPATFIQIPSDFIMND
T2 sequence (P16471 with tags, fused parts or gaps): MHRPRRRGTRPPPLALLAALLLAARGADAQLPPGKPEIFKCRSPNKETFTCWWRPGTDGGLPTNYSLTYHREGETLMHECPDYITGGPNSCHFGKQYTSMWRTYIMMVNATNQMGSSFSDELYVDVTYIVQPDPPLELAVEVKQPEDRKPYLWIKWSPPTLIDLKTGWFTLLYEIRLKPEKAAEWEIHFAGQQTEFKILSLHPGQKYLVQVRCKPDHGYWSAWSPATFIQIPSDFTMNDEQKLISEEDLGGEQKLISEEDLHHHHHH
T1 sequence (P16471 with tags, fused parts or gaps): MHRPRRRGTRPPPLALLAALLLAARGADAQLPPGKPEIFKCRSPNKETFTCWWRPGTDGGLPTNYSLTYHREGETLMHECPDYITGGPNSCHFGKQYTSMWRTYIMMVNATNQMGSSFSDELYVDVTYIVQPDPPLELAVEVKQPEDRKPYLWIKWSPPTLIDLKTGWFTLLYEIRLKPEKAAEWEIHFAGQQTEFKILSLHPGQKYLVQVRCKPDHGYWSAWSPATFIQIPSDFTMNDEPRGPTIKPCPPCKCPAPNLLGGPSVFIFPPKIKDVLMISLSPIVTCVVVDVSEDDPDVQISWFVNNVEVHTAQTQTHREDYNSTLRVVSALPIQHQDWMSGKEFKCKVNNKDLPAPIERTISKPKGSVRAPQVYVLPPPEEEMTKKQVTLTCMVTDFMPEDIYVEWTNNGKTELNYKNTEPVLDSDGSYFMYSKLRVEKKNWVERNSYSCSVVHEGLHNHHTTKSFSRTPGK

Molecule	Kd ([1]; 25° C.) [pM]	T½ ([1]; 25° C.) [min]	Kd ([1]; 37° C.) [pM]	T½ ([1]; 37° C.) [min]	Kd ([2]; 25° C.) [pM]	T½ ([2]; 25° C.) [min]	Kd ([2]; 37° C.) [pM]	T½ ([2]; 37° C.) [min]	Kd ([3]; 25° C.) [pM]	Kd ([3]; 37° C.) [pM]	T½ ([3]; 25° C.) [min]	T½ ([3]; 37° C.) [min]	FACS Cell Binding (Fold Above Background) [4] [Fold Above Background]	IC50 [5] [pM]	Percent Blocking at 100 nM Antibody [5] [%]
H1H6781P: anti-PRLR antibody, human IgG1 Fc; HCVR/LCVR SEQ ID NOs 50/58 (antibody, V domains shown, human IgG1 Fc) VH: EVQLVESGGDLVQPGESLRLSCTASGFTFNSYEMNWVRQAPGKGLEWVSYISSSGGTKYYVDSVKGRFTISRDNAKKSLYLQMNSLRADDTALYYCARLNGVDVFDIWGQGTMVTVSS VL: DIQMTQSPSSLSASVGDRVTITCRASQDIFNYLAWFQQKPGKVPELLISAASTLQSGVPSRFSGSGSGTYFTLTISSLQPEDIATYYCQRYNSAPLTFGGGTKVEIK	236	191	226	117	610	91	910	37	986	1080	82	43	26	27	100
H1H6793P: anti-PRLR antibody, human IgG1 Fc; HCVR/LCVR SEQ ID NOs 146/154 (antibody, V domains shown, human IgG1 Fc) VH: EVQLVESGGGLVQPGGSLRLSCAASGFSFSIYAMSWFRQAPGKGLEWVSAINGRGDGTHYADSVKGRFTISRDNSKTTLYLQMSSLRAEDTAVYYCAKPVMSTNGFDIWGQGTMVTVSS VL: DIQMTQSPSTLSASVGDRVTITCRASQSISSWLAWYQLKPGKAPKLLIYKASNLESGVPSRFSGSGSGTEFTLTISSLQPDDFATYYCQQYNIYWTFGQGTKVEIK	331	153	347	81	1410	35	3020	11	2220	4590	29	11	32		65
H1H6792P: anti-PRLR antibody, human IgG1 Fc; HCVR/LCVR SEQ ID NOs 130/138 (antibody, V domains shown, human IgG1 Fc) VH: EVQLVESGGGLVQPGRSLRLSCAASGFTLDDHAVHWVRQAPGKGLEWVSGISWNSVYIDYADSVKGRFTIFRDNAKNSLYLQMNSLRAEDTAFYYCARDIEGARDYWGQGTLVTVSS VL: DIQMTQSPSSLSASVGDRVTITCRASQGIRNDLGWYQQKPGKAPKRLIYAASSLQSGVPSRFSGSGYGTEFTLTISSLQPEDFAPYYCLQHNSYPLTFGGGTKVEIK	313	122	352	66	2450	15	5270	5	4170	9370	12	4	28	570	100

Second part, led by results:

Kd ([1]; 25° C.) [pM]	T½ ([1]; 25° C.) [min]	Kd ([1]; 37° C.) [pM]	T½ ([1]; 37° C.) [min]	Kd ([2]; 25° C.) [pM]	T½ ([2]; 25° C.) [min]	Kd ([2]; 37° C.) [pM]	T½ ([2]; 37° C.) [min]	Kd ([3]; 25° C.) [pM]	Kd ([3]; 37° C.) [pM]	Molecule	T½ ([3]; 25° C.) [min]	T½ ([3]; 37° C.) [min]	FACS Cell Binding (Fold Above Background) [4] [Fold Above Background]	IC50 [5] [pM]	Percent Blocking at 100 nM Antibody [5] [%]
192	111	306	58	1410	14	3500	4	2040	5220	H1H6790P: anti-PRLR antibody, human IgG1 Fc; HCVR/LCVR SEQ ID NOs 114/122 (antibody, V domains shown, human IgG1 Fc) VH: EVQLVESGGGLVQPGGSLRLSCAASGFTFSSYAMTWVRQAPGKGLEWVSAITGSVGNTYYADSVKGRFTISRDNSKNTLYLQMNSLGAEDTAEYYCAKGAGMTTNWYLDLWGRGTLVTVSS VL: DIVMTQSPDSLAVSLGARATINCKSSQSVLYSSNNQNYLTWYQQKPGQPPKLLIKWASTRESGVPDRFSGSGSGTDFTLTISSLQAEDVAVYYCQQYASSPYTFGQGTKLEIK	15	4	24	206	100
225	162	217	89	685	47	1280	16	1050	1990	H1H6782P: anti-PRLR antibody, human IgG1 Fc; HCVR/LCVR SEQ ID NOs 66/74; non-blocking (antibody, V domains shown, human IgG1 Fc) VH: EVQLVESGGGLVQPGRSLRLSCAASGFTFDDYAMHWVRQAPGKGLEWVSGIIWNSGHIGYGDSVKGRFTISRDNAKKSLYLQMNSLRAEDTALYYCARDSGRYQSYFDYWGQGTLVTVSS VL: DIQMTQSPSTLSASVGDRVTITCRASHIISSWLAWYQQKPGKAPKVLIFKASSLESGVPSRFSGSGSGTEFTLTISSLQPDDFATYYCQQYNTYSRTFGQGTKVEIK	41	15	32	> 100000	0
231	190	256	99	567	68	1140	24	738	1520	H1H6785P: anti-PRLR antibody, human IgG1 Fc; HCVR/LCVR SEQ ID NOs 98/106 (antibody, V domains shown, human IgG1 Fc) VH: EVQLVESGGGLVQPGGSLRLSCAASGFTFSSYEMNWVRQAPGKGLEWISYISSRGGTIYYADSIKGRFTIYRDNARNSLYLQMNSLRAEDTAIYYCARLSGVDIFDIWGQGTMVTVSS VL: DIQMTQSPSSLSASVGDRVTITCRASQGISNYLAWYQQKPGKVPKLLIYFASTLQSGVPSRFSGGGSGTDFTLTISSLQPEDVATYYCQRYNSAPLTFGGGTKVEIK	69	26	26	345	100
